B1: Probable glutaredoxin slr1562 (Synechocystis sp. (strain PCC 6803 / Kazusa)), P74593 (parent)
chain: MANLFNWLPLLSGRQADGIKAKVEIYTWQTCPFCIRAKLLLWWKGVKFIEYKIDGDDQARQAMAARAEGRRTVPQIFVNDQGIGGCDQLYGLDSRGQLDPLLATPPNPA
partner: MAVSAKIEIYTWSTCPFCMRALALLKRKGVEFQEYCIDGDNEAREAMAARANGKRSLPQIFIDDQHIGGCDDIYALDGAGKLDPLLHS
B2: Probable glutaredoxin ssr2061 (Synechocystis sp. (strain PCC 6803 / Kazusa)), P73492 (parent)
chain: B1 partner
partner: B1 chain

Variants of: B1
Settings: with glrx2_syny3 glrx2, P73492

effect of a mutation on the interaction	Variant
disrupting interaction strength	MANLFNWLPLLSGRQADGIKAKVEIYTWQTCPFSIRAKLLLWWKGVKFIEYKIDGDDQARQAMAARAEGRRTVPQIFVNDQGIGGCDQLYGLDSRGQLDPLLATPPNPA [C34S]
disrupting interaction strength	MANLFNWLPLLSGRQADGIKAKVEIYTWQTCPFCIRAKLLLWWKGVKFIEYKIDGDDQARQAMAARAEGRRTVPQIFVNDQGIGGSDQLYGLDSRGQLDPLLATPPNPA [C86S]
decreasing interaction strength	MANLFNWLPLLSGRQADGIKAKVEIYTWQTSPFCIRAKLLLWWKGVKFIEYKIDGDDQARQAMAARAEGRRTVPQIFVNDQGIGGCDQLYGLDSRGQLDPLLATPPNPA [C31S]

Variants of: B2
Settings: with glrx1_syny3 glrx1, P74593

effect of a mutation on the interaction	Variant
decreasing interaction strength	MAVSAKIEIYTWSTCPFSMRALALLKRKGVEFQEYCIDGDNEAREAMAARANGKRSLPQIFIDDQHIGGCDDIYALDGAGKLDPLLHS [C18S]
decreasing interaction strength	MAVSAKIEIYTWSTCPFCMRALALLKRKGVEFQEYSIDGDNEAREAMAARANGKRSLPQIFIDDQHIGGCDDIYALDGAGKLDPLLHS [C36S]
decreasing interaction strength	MAVSAKIEIYTWSTCPFCMRAKALLKRKGVEFQEYCIDGDNEAREAMAARANGKRSLPQIFIDDQHIGGCDDIYALDGAGKLDPLLHS [L22K]
